Measurements: the RNAGym collection of RNA variant scans (doi:10.7554/elife.80360)

B1: Hairpin Ribozyme (parent)
chain: GUCCUCUUUCACGUGCGCGUGAAAGAGAGAAGUGAACCAGAGAAACACACGUUGUGGUAUAUUACCUGGUA

Variants of: B1
Assay: self-cleavage, relative activity (ratio to wild type); higher = more cleavage; co-transcriptional

Variant | self-cleavage
G40U U67A | 0.159
G40U A49U | 0.0847
G40U A49C | 0.118
A41C G54U | 0.724
A41U U53A | 1.28
A41U C65G | 0.563
G42C A43C | 0.137
G42U A49U | 0.24
G42A U70A | 0.0455
A43C A61G | 0.147
A43U U58C | 0.189
G42A G56U | 0.13
G42A G56A | 0.191
A41C U67A | 0.27
A43G C46U | 0.0992
A43C U55A | 0.174
A43C U55C | 0.201
G42U U63C | 0.213
G42A A47U | 0.0842
A43G C50G | 0.133
G40C C50U | 0.198
G40C A45U | 0.267
G40C A45G | 0.0193
A41G A64U | 0.206

Variant | self-cleavage
A41G A64C | 0.0864
G40C C65G | 0.156
G40C C65A | 0.145
G40A G42C | 0.0893
G40C G57A | 0.111
G40U G51U | 0.179
G40U G51A | 0.283
A43C A47G | 0.0478
G40C U70C | 0.13
G40C U70G | 0.131
G40C U70A | 0.143
G40U A47U | 0.131
A41C G42C | 0.218
A41G C65G | 1.13
A41C U52C | 0.79
A41C U70C | 1.04
G40A A61C | 0.14
A41C U55G | 0.285
A41G U62G | 0.325
A43G C65U | 0.224
G40C A61U | 0.224
A43G A47U | 0.131
G40C U53A | 0.235
A41C A64C | 0.285

Variant | self-cleavage
G42A G69U | 0.219
G40A G54A | 0.19
G40A G54C | 0.0891
A43C A44U | 0.171
A43U A44U | 0.141
A43U A44C | 0.157
A43C A49C | 0.199
A43C A49G | 0
G42A A45C | 0.0962
G42A C48A | 0.0835
A41U A59U | 0.241
G40U G54C | 0.155
G40U G54A | 0.157
G40A U55C | 0.144
G40A U55G | 0.121
A41G A59G | 0.17
G40A C46G | 0.136
G40A C46U | 0.147
A41C U62C | 0.329
A43G A59C | 0.153
A43G A59U | 0.157
G40C C46G | 0.21
A43C U62G | 0.257
G42A C65A | 0.0752

Variant | self-cleavage
G42A C65G | 0.132
G42A C65U | 0.103
G40U G68U | 0.195
A43U G56A | 0.155
G42A G57U | 0.0918
A41G C46U | 0.0954
A43U A45C | 0.0872
A43U A45G | 0.119
G40A U58C | 0.558
G40A G56A | 0.117
A41C U60G | 0.998
A41G G56C | 0.165
G42U U52A | 0.379
G42U U52C | 0.4
G42U U52G | 0.135
G42U A44G | 0.267
A43C U60C | 0.196
G42U A64G | 0.154
G42U A64U | 0.186
G42U A64C | 0.18
G40U A61C | 0.0593
G40U A61U | 0.132
G42C U58G | 0.289
G42U A61G | 0.167

Variant | self-cleavage
G40A U63A | 0.161
G40A U63C | 0.15
G40A G69A | 0.122
G40A U60C | 0.413
A43U A64G | 0.159
G40C U52A | 0.209
G42A U63A | 0.174
A43U A49G | 0.151
A43U A61U | 0.174
G40A A49C | 0.0897
A41C C46A | 0.0559
A41C C46U | 0.0492
G42U C46G | 0.156
A41G G68A | 0.55
A41G U67A | 0.527
A41G U55A | 0.228
A41C A71C | 1.53
A41C G57A | 0.128
G40C U62C | 0.143
G40C U62A | 0.116
A41G U60A | 0.761
A43C U70A | 0.0723
A41G A44C | 0.109
A41C A44G | 0.241

Variant | self-cleavage
A41C A44U | 0.154
A41U G56C | 0.149
G42A U53A | 0.184
G40A C50U | 0.195
G42A C50A | 0.186
G42C G56U | 0.117
G42C U63A | 0.18
A43G A45U | 0.0816
A41G U58G | 1.1
G40A U67G | 0.147
A43U U55C | 0.0805
A41U A45C | 0.258
G40C G51A | 0.115
G40U C46U | 0.106
G40U C46A | 0.16
G42A G51A | 0.25
G42A G51C | 0.21
G42A G51U | 0.207
G40U U60G | 0.128
A41G U52A | 0.669
A43G A64C | 0.191
G42C U52A | 0.256
A41C G56U | 0.0688
G40C U55C | 0.163

Variant | self-cleavage
G40C U55G | 0.138
A43G U62C | 0.162
A43G U62G | 0.0971
A43G U62A | 0.125
A41C G69U | 0.341
A41C G69C | 0.287
A41C G69A | 0.524
A43U G57C | 0.17
G42A | 0.223
G42C | 0.318
G42U | 0.289
G40U G42C | 0.0925
G40C A41G | 0.163
G42A A49C | 0.168
G42A A49U | 0.11
A41C C65A | 0.782
A41C C65U | 0.513
A41C C65G | 0.247
A43U C46U | 0.187
A43G G54A | 0.066
A41U A44U | 0.161
A41U G42A | 0.321
A41U U52G | 1.07
G42C A64U | 0.0972

Variant | self-cleavage
G42C A64C | 0.252
G42A A71G | 0.296
A41C A47C | 0.468
A41U A43G | 0.0919
A41U A43C | 0.231
A41U U67C | 0.456
A43C G51C | 0.193
A43C G51A | 0.0814
A41U G54A | 1.03
G40U C66A | 0.593
G40U C66G | 0.11
A43C A71G | 0.186
G42A A64G | 0.141
A41C A43U | 0.13
G42C A47C | 0.149
A43C A64G | 0.185
A43C A64C | 0.0846
A43U G54U | 0.129
G42A A59C | 0.195
A41C A59G | 0.152
A43C G57U | 0.149
A41C C48A | 0.218
G40C G56U | 0.152
G42C C65G | 0.117

Variant | self-cleavage
G42C C65U | 0.215
A41G C48A | 0.0982
A43C U63G | 0.117
A41U G51A | 1.11
A43G A61G | 0.188
A43G A61U | 0.169
A43G A44C | 0.0882
A43U U62A | 0.227
A43U U62C | 0.107
A43U U62G | 0.0478
G42A A43G | 0.0927
G42A U58G | 0.17
G42A U58A | 0.139
G42C A49G | 0.244
G42C A49U | 0.155
G40U U70A | 0.123
A41C A61C | 0.456
A41U A49U | 0.725
G42C U67C | 0.137
A43G G69U | 0.126
G42U U67C | 0.131
G40C A71G | 0.165
G40C A71C | 0.401
A41U C50A | 0.673

Variant | self-cleavage
G40C A47G | 0.0685
A43C A45G | 0.116
A43C A45U | 0.203
A41U U70C | 1.42
A41U U63C | 0.248
A41U U63G | 0.223
G42A U62G | 0.154
G42A G54C | 0.168
G42A G54A | 0.153
G42A G54U | 0.136
A41U A71U | 1.15
A41G U63A | 0.328
G40U A45C | 0.103
G40U A45G | 0.132
G40U A45U | 0.219
G42U G56A | 0.231
G42C C50U | 0.0822
G42C C50G | 0.0792
A43U C65G | 0.155
A43U C65U | 0.144
G42U G68U | 0.14
G40A U53A | 0.424
A41C G68A | 0.249
A41C G68C | 0.225

Variant | self-cleavage
A41C G68U | 0.177
G40C U58G | 0.199
G42C U60G | 0.211
G42C U60A | 0.133
A43C C65G | 0.0609
A43C C65A | 0.102
A43C C65U | 0.173
G40U A43C | 0.165
A43U C50A | 0.0923
A43U C48G | 0.166
A43U C48U | 0.162
A43C A59G | 0.284
A43C C50U | 0.13
A43C C48A | 0.135
G40A G57C | 0.0825
G40A G57U | 0.0976
G40A A59G | 0.0897
G40U C50U | 0.11
G40U A44G | 0.161
A43U C66G | 0.138
A41C U53A | 0.786
A43U A59C | 0.12
G40C A59U | 0.198
A43G U67A | 0.125

Variant | self-cleavage
G42C A61C | 0.133
G40C A49C | 0.0764
G40C A49U | 0.169
G40C A49G | 0.132
G42U C48G | 0.134
A41G C50G | 0.325
A41G C50U | 0.385
A43C C66A | 0.0928
A41U A47C | 0.955
G40A A71G | 0.402
A41U C46U | 0.0994
G40U A71U | 0.131
G40C U60C | 0.135
G40C A44U | 0.151
G40C A44G | 0.101
A43G G51U | 0.245
G40U G69A | 0.143
G40C U67A | 0.0737
G40U A59U | 0.14
A43G U55A | 0.0267
A43G U55C | 0.201
A41G U70A | 0.97
G42C C46G | 0.103
G40U U55A | 0.104

Variant | self-cleavage
G40U A64G | 0.103
G42U G69C | 0.136
G42U G69U | 0.136
G42U G69A | 0.142
G42U U53G | 0.198
G40U A41U | 0.221
G42U C66G | 0.155
G42U C66U | 0.232
G42U U55G | 0.165
G42U U55C | 0.155
A43G G57C | 0.195
A41U A61U | 0.399
A41U A61G | 0.148
A41U U60C | 1.24
G42C U53G | 0.244
G42U U70G | 0.105
A43U G68C | 0.106
A41G G42U | 0.236
G42U A47C | 0.22
G42U A47U | 0.12
G42U A47G | 0.107
G42U C65A | 0.142
G40U G57A | 0.128
G40U U58C | 0.278

Variant | self-cleavage
G42A A44G | 0.201
G42A A44U | 0.207
G42A A44C | 0.27
G42C A71C | 0.664
A43U U60G | 0.0802
G40A G51A | 0.578
A41U G68A | 0.504
G42C G51A | 0.415
A41G A45U | 0.105
A41G A45C | 0.101
A41G A45G | 0.225
G42A G68C | 0.15
G42A G68A | 0.14
G40C G42U | 0.191
G40C G42A | 0.0581
A41U C48A | 0.31
A41U C48U | 0.132
A43C U67G | 0.13
A41G A49C | 0.0938
G42A C46G | 0.106
G42C G57A | 0.1
G42C G57C | 0.0624
